Experimental data taken from patent US20100081612A1 (GENERAL HOSPITAL, published 2010).
Where no end group is shown, it is not given here. [ ]: non-standard residue; d: D form. Cha = N[C@@H](CC1CCCCC1)C(=O)O

T1: wild-type human PTHR (human, UniProt Q03431 27-593)
T1 construct: whole, on cells; also called PTHR-WT; intact PTHR
T1 sequence (looked up): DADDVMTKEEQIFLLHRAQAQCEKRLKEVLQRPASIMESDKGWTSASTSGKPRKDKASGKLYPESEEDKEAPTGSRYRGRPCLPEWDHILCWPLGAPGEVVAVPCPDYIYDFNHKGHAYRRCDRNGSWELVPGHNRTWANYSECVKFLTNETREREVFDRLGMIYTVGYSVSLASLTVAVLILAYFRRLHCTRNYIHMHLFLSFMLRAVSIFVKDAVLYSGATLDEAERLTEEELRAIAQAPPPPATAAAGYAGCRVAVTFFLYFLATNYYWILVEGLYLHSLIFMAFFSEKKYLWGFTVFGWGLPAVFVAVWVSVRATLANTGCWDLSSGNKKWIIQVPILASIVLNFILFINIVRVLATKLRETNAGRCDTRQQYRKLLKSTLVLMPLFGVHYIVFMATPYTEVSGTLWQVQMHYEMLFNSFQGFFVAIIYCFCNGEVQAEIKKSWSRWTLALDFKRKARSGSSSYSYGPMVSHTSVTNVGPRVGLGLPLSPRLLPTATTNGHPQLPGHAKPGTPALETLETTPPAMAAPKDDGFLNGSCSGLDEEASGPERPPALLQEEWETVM

B1: [Ala^1,Arg^19]hPTH(1-31)NH2 Glu^22→Cha (peptide)
peptide: AVSEIQLMHNLGKHLNSMRRV[Cha]WLRKKLQDV-NH2
modifications: N-terminus assumed
SMILES: CC[C@H](C)[C@H](NC(=O)[C@H](CCC(=O)O)NC(=O)[C@H](CO)NC(=O)[C@@H](NC(=O)[C@H](C)N)C(C)C)C(=O)N[C@@H](CCC(N)=O)C(=O)N[C@@H](CC(C)C)C(=O)N[C@@H](CCSC)C(=O)N[C@@H](Cc1c[nH]cn1)C(=O)N[C@@H](CC(N)=O)C(=O)N[C@@H](CC(C)C)C(=O)NCC(=O)N[C@@H](CCCCN)C(=O)N[C@@H](Cc1c[nH]cn1)C(=O)N[C@@H](CC(C)C)C(=O)N[C@@H](CC(N)=O)C(=O)N[C@@H](CO)C(=O)N[C@@H](CCSC)C(=O)N[C@@H](CCCNC(=N)N)C(=O)N[C@@H](CCCNC(=N)N)C(=O)N[C@H](C(=O)N[C@@H](CC1CCCCC1)C(=O)N[C@@H](Cc1c[nH]c2ccccc12)C(=O)N[C@@H](CC(C)C)C(=O)N[C@@H](CCCNC(=N)N)C(=O)N[C@@H](CCCCN)C(=O)N[C@@H](CCCCN)C(=O)N[C@@H](CC(C)C)C(=O)N[C@@H](CCC(N)=O)C(=O)N[C@@H](CC(=O)O)C(=O)N[C@H](C(N)=O)C(C)C)C(C)C
B2: [Ala^1,Arg^19]hPTH(1-31)NH2 Lys^27→Cha (peptide)
peptide: AVSEIQLMHNLGKHLNSMRRVEWLRK[Cha]LQDV-NH2
modifications: N-terminus assumed
SMILES: CC[C@H](C)[C@H](NC(=O)[C@H](CCC(=O)O)NC(=O)[C@H](CO)NC(=O)[C@@H](NC(=O)[C@H](C)N)C(C)C)C(=O)N[C@@H](CCC(N)=O)C(=O)N[C@@H](CC(C)C)C(=O)N[C@@H](CCSC)C(=O)N[C@@H](Cc1c[nH]cn1)C(=O)N[C@@H](CC(N)=O)C(=O)N[C@@H](CC(C)C)C(=O)NCC(=O)N[C@@H](CCCCN)C(=O)N[C@@H](Cc1c[nH]cn1)C(=O)N[C@@H](CC(C)C)C(=O)N[C@@H](CC(N)=O)C(=O)N[C@@H](CO)C(=O)N[C@@H](CCSC)C(=O)N[C@@H](CCCNC(=N)N)C(=O)N[C@@H](CCCNC(=N)N)C(=O)N[C@H](C(=O)N[C@@H](CCC(=O)O)C(=O)N[C@@H](Cc1c[nH]c2ccccc12)C(=O)N[C@@H](CC(C)C)C(=O)N[C@@H](CCCNC(=N)N)C(=O)N[C@@H](CCCCN)C(=O)N[C@@H](CC1CCCCC1)C(=O)N[C@@H](CC(C)C)C(=O)N[C@@H](CCC(N)=O)C(=O)N[C@@H](CC(=O)O)C(=O)N[C@H](C(N)=O)C(C)C)C(C)C
notes: also called Cha^27 analog
B3: [Ala^1,Arg^19]hPTH(1-31)NH2 Leu^28→Cha (peptide)
peptide: AVSEIQLMHNLGKHLNSMRRVEWLRKK[Cha]QDV-NH2
modifications: N-terminus assumed
SMILES: CC[C@H](C)[C@H](NC(=O)[C@H](CCC(=O)O)NC(=O)[C@H](CO)NC(=O)[C@@H](NC(=O)[C@H](C)N)C(C)C)C(=O)N[C@@H](CCC(N)=O)C(=O)N[C@@H](CC(C)C)C(=O)N[C@@H](CCSC)C(=O)N[C@@H](Cc1c[nH]cn1)C(=O)N[C@@H](CC(N)=O)C(=O)N[C@@H](CC(C)C)C(=O)NCC(=O)N[C@@H](CCCCN)C(=O)N[C@@H](Cc1c[nH]cn1)C(=O)N[C@@H](CC(C)C)C(=O)N[C@@H](CC(N)=O)C(=O)N[C@@H](CO)C(=O)N[C@@H](CCSC)C(=O)N[C@@H](CCCNC(=N)N)C(=O)N[C@@H](CCCNC(=N)N)C(=O)N[C@H](C(=O)N[C@@H](CCC(=O)O)C(=O)N[C@@H](Cc1c[nH]c2ccccc12)C(=O)N[C@@H](CC(C)C)C(=O)N[C@@H](CCCNC(=N)N)C(=O)N[C@@H](CCCCN)C(=O)N[C@@H](CCCCN)C(=O)N[C@@H](CC1CCCCC1)C(=O)N[C@@H](CCC(N)=O)C(=O)N[C@@H](CC(=O)O)C(=O)N[C@H](C(N)=O)C(C)C)C(C)C
B4: [Ala^1,Arg^19]hPTH(1-31)NH2 Gln^29→Cha (peptide)
peptide: AVSEIQLMHNLGKHLNSMRRVEWLRKKL[Cha]DV-NH2
modifications: N-terminus assumed
SMILES: CC[C@H](C)[C@H](NC(=O)[C@H](CCC(=O)O)NC(=O)[C@H](CO)NC(=O)[C@@H](NC(=O)[C@H](C)N)C(C)C)C(=O)N[C@@H](CCC(N)=O)C(=O)N[C@@H](CC(C)C)C(=O)N[C@@H](CCSC)C(=O)N[C@@H](Cc1c[nH]cn1)C(=O)N[C@@H](CC(N)=O)C(=O)N[C@@H](CC(C)C)C(=O)NCC(=O)N[C@@H](CCCCN)C(=O)N[C@@H](Cc1c[nH]cn1)C(=O)N[C@@H](CC(C)C)C(=O)N[C@@H](CC(N)=O)C(=O)N[C@@H](CO)C(=O)N[C@@H](CCSC)C(=O)N[C@@H](CCCNC(=N)N)C(=O)N[C@@H](CCCNC(=N)N)C(=O)N[C@H](C(=O)N[C@@H](CCC(=O)O)C(=O)N[C@@H](Cc1c[nH]c2ccccc12)C(=O)N[C@@H](CC(C)C)C(=O)N[C@@H](CCCNC(=N)N)C(=O)N[C@@H](CCCCN)C(=O)N[C@@H](CCCCN)C(=O)N[C@@H](CC(C)C)C(=O)N[C@@H](CC1CCCCC1)C(=O)N[C@@H](CC(=O)O)C(=O)N[C@H](C(N)=O)C(C)C)C(C)C
B5: [Ala^1,Arg^19]hPTH(1-31)NH2 Asp^30→Cha (peptide)
peptide: AVSEIQLMHNLGKHLNSMRRVEWLRKKLQ[Cha]V-NH2
modifications: N-terminus assumed
SMILES: CC[C@H](C)[C@H](NC(=O)[C@H](CCC(=O)O)NC(=O)[C@H](CO)NC(=O)[C@@H](NC(=O)[C@H](C)N)C(C)C)C(=O)N[C@@H](CCC(N)=O)C(=O)N[C@@H](CC(C)C)C(=O)N[C@@H](CCSC)C(=O)N[C@@H](Cc1c[nH]cn1)C(=O)N[C@@H](CC(N)=O)C(=O)N[C@@H](CC(C)C)C(=O)NCC(=O)N[C@@H](CCCCN)C(=O)N[C@@H](Cc1c[nH]cn1)C(=O)N[C@@H](CC(C)C)C(=O)N[C@@H](CC(N)=O)C(=O)N[C@@H](CO)C(=O)N[C@@H](CCSC)C(=O)N[C@@H](CCCNC(=N)N)C(=O)N[C@@H](CCCNC(=N)N)C(=O)N[C@H](C(=O)N[C@@H](CCC(=O)O)C(=O)N[C@@H](Cc1c[nH]c2ccccc12)C(=O)N[C@@H](CC(C)C)C(=O)N[C@@H](CCCNC(=N)N)C(=O)N[C@@H](CCCCN)C(=O)N[C@@H](CCCCN)C(=O)N[C@@H](CC(C)C)C(=O)N[C@@H](CCC(N)=O)C(=O)N[C@@H](CC1CCCCC1)C(=O)N[C@H](C(N)=O)C(C)C)C(C)C

Target: T1, wild-type human PTHR
Test: competition binding, HKRK-B7 cells, 125I-PTH(1-34) tracer

Question: Which “fold change in binding affinity vs [Ala^1,Arg^19]PTH(1-31)NH2” value (“fold change in binding affinity” below) does the source give for B1 here?
Answer: ≤ 6 fold

Question: Which “fold change in binding affinity” value does the source give for B2 here?
Answer: ≤ 6 fold

Question: Which “fold change in binding affinity” value does the source give for B3 here?
Answer: ≤ 6 fold

Question: For B4, which “fold change in binding affinity” value is on record?
Answer: ≤ 6 fold

Question: For B5, which “fold change in binding affinity” value is on record?
Answer: ≤ 6 fold

Target: T1, wild-type human PTHR
Test: as above
Remark: another data set of the same source
Experimental: Receptor binding—Binding to the wild-type human PTHR in intact HKRK-B7 cells and ROS 17/2.8 cells was assessed using ¹²⁵I-PTH(1-34) as a tracer radioligand, as described (Shimizu, M., (2001) Endocrinology 142:3068-3074). In brief, the cells in 24-well plates (about 500,000 cells per well) were incubated in binding buffer containing radioligand (about 100,000 cpm per well) with or without unlabeled peptide ligand (3×10⁻⁹ to 1×10⁻⁵ M) for four hours at 15° C. The binding mixture was then removed by aspiration, the cells were rinsed three times with binding buffer, lysed in 1 M NaOH, and the entire lysate was counted for gamma-irradiation in a gamma counter. Binding to PTHR-delNt in COS-7 cell membranes was assessed in 96-well, vacuum filtration plates (Multiscreen-Durapore HV, […], Millipore Corp., Millford, Mass.) using ¹²⁵I-[Aib^{1,3},M]PTH(1-15)NH₂ as a tracer radioligand, as described (Dean, T., (2006) Mol Endocrinol 20:931-942). In brief, cell membranes (20 μg/well) were incubated in membrane binding buffer containing radioligand (30,000 cpm/well) with or without unlabeled peptide ligand (3×10⁻⁹ to 1×10⁻⁵ M) for 90 minutes at 21° C. The plates were then subject to rapid vacuum filtration, the filters were washed once with buffer, detached from the plate and counted for gamma-irradiation in a gamma counter. Non-specific binding was defined as the binding observed in the presence of 1×10⁻⁶ M PTH(1-31)NH₂ for HKRK-B7 and ROS 17/2.8 cells, and 1×10⁻⁶ M [Aib^{1,3},M]PTH(1-15)NH₂ for PTHR-delNt. Specifically bound radioactivity was calculated as a percentage of the radioactivity specifically bound in the absence of competing ligand.
Cyclohexylalanine and glutamate substitutions were introduced into [Ala¹,Arg¹⁹]hPTH(1-31)NH₂. The helical residue values were calculated from [θ]₂₂₂, the mean-residue elipticities observed in the CD spectra at 222 nm. Competition binding studies were performed in intact HKRK-B7 cells stably transfected with the hPTHR using ¹²⁵I-[Nle^{8,21},Tyr³⁴]rPTH(1-34)NH ₂ tracer radioligand, and in membranes prepared from COS-7 cells transiently transfected with hPTHR-delNt and a negative-dominant Gαs using ¹²⁵I-[Aib^{1,3},Nle⁸,Gln¹⁰,Har¹¹,Ala¹²,Trp¹⁴,Tyr¹⁵]rPTH(1-15)NH₂ tracer radioligand. Binding values (nM) are means (+/−s.e.m.) of data from the number of experiments indicated (n).

Question: With B1 as the binder, how does the IC50 read?
Answer: 75 nM

Question: With B2 as the binder, how does the IC50 read?
Answer: 91 nM

Question: For B3, which IC50 is on record?
Answer: 65 nM

Question: For B4, which IC50 is on record?
Answer: 61 nM

Question: With B5 as the binder, how does the IC50 read?
Answer: 54 nM

Target: PTHR-delNt (human) (UniProt Q03431)
Test: competition binding, COS-7 membranes, 125I-[Aib1,3,M]PTH(1-15) tracer

Question: For B1, which IC50 is on record?
Answer: 126 nM

Question: What about the fold change in binding affinity vs [Ala^1,Arg^19]PTH(1-31)NH2 of the same binder?
Answer: < 3 fold

Question: B2 was tested. Which IC50 did it give?
Answer: 629 nM

Question: And the fold change in binding affinity vs [Ala^1,Arg^19]PTH(1-31)NH2?
Answer: < 3 fold

Question: Which IC50 does the source give for B3 here?
Answer: 226 nM

Question: What about the fold change in binding affinity vs [Ala^1,Arg^19]PTH(1-31)NH2 of the same binder?
Answer: < 3 fold

Question: For B4, which IC50 is on record?
Answer: 319 nM

Question: And the fold change in binding affinity vs [Ala^1,Arg^19]PTH(1-31)NH2?
Answer: < 3 fold

Question: B5 was tested. Which IC50 did it give?
Answer: 305 nM

Question: And the fold change in binding affinity vs [Ala^1,Arg^19]PTH(1-31)NH2?
Answer: < 3 fold
